± gives the uncertainty stated by the source.
B1: Zinc finger homeobox protein 4, residues 2183 to 2238; numbered along this chain, Q86UP3 (parent)
chain: SSRTRFTDYQLRVLQDFFDTNAYPKDDEIEQLSTVLNLPTRVIVVWFQNARQKARK

Variants of: B1
Test: abundance fitness (aPCA) (normalised: wild type 0, dead -1); higher = more abundant; growth selection in yeast, the domain comes from the species named
Conditions: Homo sapiens

Abundance fitness of substitutions, site by site:
F47: Q -0.829 ± 0.22; C -0.471 ± 0.18; L -0.016 ± 0.092; K -0.694 ± 0.2; P -1.06 ± 0.32; I 0.044 ± 0.4; S -0.507 ± 0.12; T -0.893 ± 0.29; Y -0.207 ± 0.28; R -0.801 ± 0.12
W46: A -0.669 ± 0.19; C -0.366 ± 0.21; T -0.972 ± 0.48
R55: S -0.069 ± 0.14; D -0.041 ± 0.21; T 0.004 ± 0.19; F -0.369 ± 0.27; G -0.048 ± 0.092; P -0.113 ± 0.15
Q31: G -0.098 ± 0.072; N -0.444 ± 0.22; Y -0.085 ± 0.18; K 0.037 ± 0.15; W -0.184 ± 0.097; H -0.263 ± 0.23
Y9: E 0.081 ± 0.098; T 0.167 ± 0.1; G 0.062 ± 0.072; K 0.318 ± 0.12; D -0.128 ± 0.13; M 0.025 ± 0.11; V -0.038 ± 0.081; R 0.11 ± 0.076
D16: N -0.034 ± 0.14; W -0.838 ± 0.14; H -0.193 ± 0.17; S 0.042 ± 0.097; C -0.32 ± 0.16; K -0.108 ± 0.15
L36: F -0.407 ± 0.086; A -0.098 ± 0.086; V 0.03 ± 0.074; K -0.794 ± 0.15; G -0.318 ± 0.087; R -0.811 ± 0.088
R12: A -0.263 ± 0.092; C -0.732 ± 0.13; N -0.017 ± 0.19; Q -0.014 ± 0.15; G -0.147 ± 0.083
S2: Y -0.07 ± 0.14; F -0.229 ± 0.14; V -0.043 ± 0.087; D 0.254 ± 0.11; H -0.106 ± 0.16; T 0.151 ± 0.13; R -0.106 ± 0.091
T20: W -0.158 ± 0.1; A 0.108 ± 0.089; F -0.503 ± 0.14; N -0.058 ± 0.16; V -0.199 ± 0.092; S -0.047 ± 0.088
L11: E 0.095 ± 0.25; F -0.011 ± 0.12; T -0.063 ± 0.2; N 0.053 ± 0.2; M -0.061 ± 0.2; I -0.031 ± 0.17; Y -0.194 ± 0.21
N37: T 0.111 ± 0.11; R -0.12 ± 0.081; F -0.308 ± 0.16; K 0.042 ± 0.11; L -0.156 ± 0.079
P39: D 0.093 ± 0.12; V -0.766 ± 0.1; C -0.063 ± 0.13; L -0.962 ± 0.15; Y -0.701 ± 0.19; S -0.062 ± 0.099; Q -0.095 ± 0.15
E30: Y -0.366 ± 0.2; D 0.08 ± 0.12; T -0.046 ± 0.12; M 0.201 ± 0.1; G 0.059 ± 0.075; P -0.463 ± 0.12
V45: S 0.072 ± 0.15; Y -0.149 ± 0.28; H -0.298 ± 0.34; Q -0.242 ± 0.19; D 0.528 ± 0.19; R -0.335 ± 0.11
F17: N 0.049 ± 0.15; E -0.252 ± 0.12; S -0.097 ± 0.1; Y -0.196 ± 0.17; H 0.079 ± 0.14
L38: A -0.019 ± 0.082; G -1.04 ± 0.13; C 0.018 ± 0.093; N -0.914 ± 0.099; M -0.067 ± 0.1; I -0.061 ± 0.087; S -0.275 ± 0.074
L32: D -0.531 ± 0.17; G -0.973 ± 0.098; W -0.399 ± 0.09; N -0.683 ± 0.22; C -0.548 ± 0.12; I -0.156 ± 0.15; P -0.797 ± 0.14; A -0.659 ± 0.097; K -0.735 ± 0.19
R51: Q -0.251 ± 0.24; E -0.144 ± 0.27; I -0.235 ± 0.2; T -0.608 ± 0.24
S33: P -0.675 ± 0.15; N -0.257 ± 0.14; M -0.35 ± 0.22; K -0.82 ± 0.4; V -0.595 ± 0.3
F18: D -0.887 ± 0.15; I -0.16 ± 0.076; N -0.459 ± 0.086
E28: S -0.18 ± 0.094; N -0.287 ± 0.14; T -0.069 ± 0.13; V -0.34 ± 0.082; M -0.507 ± 0.17; C -0.18 ± 0.11; Q 0.061 ± 0.15
V44: G -0.059 ± 0.096; M -0.136 ± 0.1; I 0.05 ± 0.079; K -0.22 ± 0.11; C 0.028 ± 0.1; S 0.008 ± 0.07; D -0.064 ± 0.11; A -0.067 ± 0.077; W -0.253 ± 0.12
R3: H 0.367 ± 0.12; T 0.368 ± 0.13; A 0.358 ± 0.083; K 0.31 ± 0.12; W 0.253 ± 0.094; D 0.343 ± 0.14; V 0.334 ± 0.08
P24: D -0.832 ± 0.18; R -0.657 ± 0.092; W -0.593 ± 0.12; I -0.292 ± 0.18; V -0.501 ± 0.092
L14: Q -1.02 ± 0.27; E -1.07 ± 0.14; N -1.15 ± 0.25; V -0.206 ± 0.077; W -0.895 ± 0.14; M 0.049 ± 0.13
N21: I -0.187 ± 0.18; K -0.201 ± 0.11; M -0.414 ± 0.13; E -0.197 ± 0.1; R -0.181 ± 0.08; V -0.279 ± 0.089; S -0.2 ± 0.099; Y -0.565 ± 0.2
R5: N 0.358 ± 0.14; M 0.309 ± 0.15; Q -0.241 ± 0.24; L 0.193 ± 0.1; Y 0.213 ± 0.15; C 0.272 ± 0.11
R41: Q 0 ± 0.14; W -0.335 ± 0.13; T 0.06 ± 0.11; E -0.181 ± 0.14; L -0.059 ± 0.085; D 0.204 ± 0.13
Q52: T 0.011 ± 0.14; R -0.401 ± 0.19; N -0.166 ± 0.2; S -0.275 ± 0.16; A -0.418 ± 0.24
K25: R -0.047 ± 0.081; P -0.244 ± 0.1; M -0.323 ± 0.13; C -0.111 ± 0.12; W -0.387 ± 0.13
V35: G 0.043 ± 0.076; P -0.297 ± 0.12; L -0.004 ± 0.094
N49: A -0.418 ± 0.12; Y -0.246 ± 0.19; C -0.252 ± 0.14; L -0.17 ± 0.1; P -0.862 ± 0.22
I29: G -0.88 ± 0.11; P -1.23 ± 0.2; Y 0.004 ± 0.13; N -0.809 ± 0.29; K -0.576 ± 0.17; A -0.266 ± 0.096; T -0.256 ± 0.11
Q48: D -0.021 ± 0.15; V -0.061 ± 0.17; R -0.106 ± 0.1; P -1.11 ± 0.3
D27: S -0.009 ± 0.22; A -0.378 ± 0.37; L -0.004 ± 0.26; R -0.038 ± 0.41; Q 0.08 ± 0.28; M -0.012 ± 0.36
Q15: I -0.141 ± 0.13; E -0.139 ± 0.12; T -0.069 ± 0.11; V -0.095 ± 0.082; N -0.158 ± 0.26
V13: Y 0.092 ± 0.14; C -0.181 ± 0.23; I -0.001 ± 0.13
Y23: V -0.039 ± 0.095; N -0.369 ± 0.23; F -0.084 ± 0.16; M 0.031 ± 0.12; A -0.097 ± 0.12
D26: N -0.114 ± 0.15; G 0.005 ± 0.085; C -0.255 ± 0.2; I -0.427 ± 0.22; R -0.05 ± 0.083; P -0.193 ± 0.14; S -0.049 ± 0.09
D19: Y -0.171 ± 0.18; P -0.43 ± 0.17; L -0.028 ± 0.098; C -0.236 ± 0.14; E -0.235 ± 0.11; K -0.074 ± 0.13; H -0.173 ± 0.15
T34: P -0.347 ± 0.11; I -0.256 ± 0.13; Q -0.128 ± 0.11; L -0.004 ± 0.077
V42: Q -0.143 ± 0.14; P -0.194 ± 0.16; H 0.03 ± 0.16; T 0.043 ± 0.15; R -0.2 ± 0.091; F -0.415 ± 0.19; I 0.043 ± 0.14; C -0.263 ± 0.2; W -0.039 ± 0.12; Y -0.18 ± 0.21
T7: L -0.384 ± 0.12; Q -0.27 ± 0.17; D -0.081 ± 0.18; M -0.278 ± 0.14; C -0.586 ± 0.17; R -0.67 ± 0.093
K53: H 0.126 ± 0.17; C 0.11 ± 0.13; E 0.262 ± 0.11; T 0.028 ± 0.12; W -0.178 ± 0.1; Q -0.155 ± 0.11; D 0.109 ± 0.16; Y -0.223 ± 0.19
T4: N 0.047 ± 0.14; Y 0.323 ± 0.16; A -0.698 ± 0.14; M 0.392 ± 0.11; D 0.015 ± 0.16; V -0.602 ± 0.11; H 0.096 ± 0.13; L 0.072 ± 0.083; R -0.533 ± 0.08; G -0.328 ± 0.092
A54: C 0.062 ± 0.17; L -0.079 ± 0.093; K -0.232 ± 0.23; Y -0.277 ± 0.15; E -0.013 ± 0.23; G -0.06 ± 0.12; W -0.211 ± 0.18; P -0.073 ± 0.088; N 0.081 ± 0.12
F6: A -0.654 ± 0.1; Q -0.568 ± 0.13; E -0.344 ± 0.17; L -0.122 ± 0.071; N -0.375 ± 0.11; I -0.09 ± 0.091; D -0.09 ± 0.12
A50: E -0.116 ± 0.15; P -0.87 ± 0.29; N -0.033 ± 0.22; D -0.57 ± 0.41; V -0.044 ± 0.12; C 0.045 ± 0.14
K56: L -0.33 ± 0.37; T 0.029 ± 0.24; I -0.238 ± 0.38
D8: A -0.106 ± 0.082; I -0.511 ± 0.17; R -0.309 ± 0.094; M -0.125 ± 0.1; W -0.58 ± 0.097; E -0.151 ± 0.099
S1: Y -0.241 ± 0.17; T -0.009 ± 0.16; M 0.045 ± 0.28; A 0.062 ± 0.2; C 0.092 ± 0.18
A22: K -0.116 ± 0.23; V -0.086 ± 0.1; W -0.169 ± 0.12; N -0.077 ± 0.21; M 0.153 ± 0.13; C 0.033 ± 0.13; E -0.016 ± 0.13; S 0.074 ± 0.098
I43: T 0.032 ± 0.13; G -1.01 ± 0.15; A -0.259 ± 0.12; H -1.18 ± 0.29; K -1.22 ± 0.26; W -1.07 ± 0.24; F -0.412 ± 0.23
Q10: G -0.69 ± 0.084; H -0.118 ± 0.076

From the Human Domainome abundance scans (Beltran et al. 2025)
